This test addresses T1, His6-tagged CB1R-CTD (amino acids 400-472), labeled with 5-IAF (UniProt P21554 400-472, labeled with 5-(iodoacetamido)fluorescein (5-IAF); labeled residue not stated).
T1 chain: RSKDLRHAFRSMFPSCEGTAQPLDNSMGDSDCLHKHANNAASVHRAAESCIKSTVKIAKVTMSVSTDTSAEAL
In words: FP.

By Kd is commonly meant the free concentration of one partner at which half of the binding sites on the other are occupied at equilibrium, for simple one-to-one binding.

B1: His6-tagged BiP-IR (amino acids 497-654), recombinant (domain or fragment)
chain: IEVTFEIDVNGILRVTAEDKGTGNKNKITITNDQNRLTPEEIERMVNDAEKFAEEDKKLKERIDTRNELESYAYSLKNQIGDKEKLGGKLSSEDKETMEKAVEEKIEWLESHQDADIEDFKAKKKELEEIVQPIISKLYGSAGPPPTGEEDTAEKDEL
In turn, B1 came in with a Kd of 17.3 µM.

B2: His6-tagged BiP, recombinant (natural protein)
chain: not shown
On to B2, for which binding was characterised by a dissociation constant (Kd) of 17.7 µM.

(Values after article PMC8460140 (2021).)
